# In IntAct's records for PubMed 26972053:
# B1: Cytosolic arginine sensor for mTORC1 subunit 1 (Homo sapiens), Q8WTX7 (parent)
# chain: MELHILEHRVRVLSVARPGLWLYTHPLIKLLFLPRRSRCKFFSLTETPEDYTLMVDEEGFKELPPSEFLQVAEATWLVLNVSSHSGAAVQAAGVTKIARSVIAPLAEHHVSVLMLSTYQTDFILVREQDLSVVIHTLAQEFDIYREVGGEPVPVTRDDSSNGFPRTQHGPSPTVHPIQSPQNRFCVLTLDPETLPAIATTLIDVLFYSHSTPKEAASSSPEPSSITFFAFSLIEGYISIVMDAETQKKFPSDLLLTSSSGELWRMVRIGGQPLGFDECGIVAQIAGPLAAADISAYYISTFNFDHALVPEDGIGSVIEVLQRRQEGLAS
# partner: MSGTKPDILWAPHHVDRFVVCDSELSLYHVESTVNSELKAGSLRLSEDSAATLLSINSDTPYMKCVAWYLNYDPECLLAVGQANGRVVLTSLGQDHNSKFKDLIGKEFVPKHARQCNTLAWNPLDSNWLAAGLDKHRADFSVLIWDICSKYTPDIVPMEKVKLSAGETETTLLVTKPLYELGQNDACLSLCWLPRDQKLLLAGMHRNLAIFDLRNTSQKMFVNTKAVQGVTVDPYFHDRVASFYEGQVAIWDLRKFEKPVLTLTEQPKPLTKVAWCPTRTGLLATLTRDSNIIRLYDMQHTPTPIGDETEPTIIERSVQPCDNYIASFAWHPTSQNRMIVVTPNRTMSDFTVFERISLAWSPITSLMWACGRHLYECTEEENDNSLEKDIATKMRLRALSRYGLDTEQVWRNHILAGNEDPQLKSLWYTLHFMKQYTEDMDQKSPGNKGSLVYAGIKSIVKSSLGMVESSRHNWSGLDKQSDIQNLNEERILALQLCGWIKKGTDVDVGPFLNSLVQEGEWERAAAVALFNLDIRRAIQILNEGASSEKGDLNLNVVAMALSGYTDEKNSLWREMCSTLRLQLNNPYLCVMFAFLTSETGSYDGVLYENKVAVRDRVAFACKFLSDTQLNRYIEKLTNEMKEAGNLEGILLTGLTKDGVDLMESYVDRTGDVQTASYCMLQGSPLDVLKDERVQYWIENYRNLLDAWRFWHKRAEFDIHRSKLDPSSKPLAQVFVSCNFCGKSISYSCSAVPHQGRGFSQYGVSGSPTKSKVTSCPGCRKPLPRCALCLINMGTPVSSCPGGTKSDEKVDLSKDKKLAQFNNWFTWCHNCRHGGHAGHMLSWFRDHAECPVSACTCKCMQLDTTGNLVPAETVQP
# Variants of: B1
# Conditions: with mios_human MIOS
row,effect of a mutation on the interaction,Variant
1,disrupting interaction strength,I280A
